Assay results published in patent US20150111251A1 (AbbVie / Abbott, published 2015).

How the values were obtained:
[1] = target: T1, Recombinant Human TNF-α/TNFSF1A (human, UniProt P01375 77-233); test: cell-based or functional assay
[2] = target: T1, Recombinant Human TNF-α/TNFSF1A; test: SPR (BIACORE), antibody captured, TNFα in solution
Procedure: The BIACORE assay (Biacore, Inc, Piscataway, N.J.) determines the affinity of antibodies with kinetic measurements of on-rate and off-rate constants. Binding of antibodies to a target antigen (for example, a purified recombinant target antigen) is determined by surface plasmon resonance-based measurements with a Biacore® 1000 or 3000 instrument (Biacore® AB, Uppsala, Sweden) using running HBS-EP (10 mM HEPES [pH 7.4], 150 mM NaCl, 3 mM EDTA, and 0.005% surfactant P20) at 25° C. All chemicals are obtained from Biacore® AB (Uppsala, Sweden) or otherwise from a different source as described. For example, approximately 5000 RU of goat anti-mouse IgG, (Fcγ), fragment specific polyclonal antibody (Pierce Biotechnology Inc, Rockford, Ill.) diluted in 10 mM sodium acetate (pH 4.5) is directly immobilized across a CM5 research grade biosensor chip using a standard amine coupling kit according to manufacturer's instructions and procedures at 25 μg/ml. Unreacted moieties on the biosensor surface are blocked with ethanolamine. Modified carboxymethyl dextran surface in flowcell 2 and 4 is used as a reaction surface. Unmodified carboxymethyl dextran without goat anti-mouse IgG in flow cell 1 and 3 is used as the reference surface. For kinetic analysis, rate equations derived from the 1:1 Langmuir binding model are fitted simultaneously to association and dissociation phases of all eight injections (using global fit analysis) with the use of Biaevaluation 4.0.1 software. Purified antibodies are diluted in HEPES-buffered saline for capture across goat anti-mouse IgG specific reaction surfaces. Antibodies to be captured as a ligand (25 μg/ml) are injected over reaction matrices at a flow rate of 5 μl/minute. The association and dissociation rate constants, kₒₙ (M⁻¹ s⁻¹) and koff (s⁻¹), are determined under a continuous flow rate of 25 μl/minute. Rate constants are derived by making kinetic binding measurements at different antigen concentrations ranging from 10-200 nM. The equilibrium dissociation constant (M) of the reaction between antibodies and the target antigen is then calculated from the kinetic rate constants by the following formula: KD=koff/kₒₙ. Binding is recorded as a function of time and kinetic rate constants are calculated. In this assay, on-rates as fast as 10⁶ M⁻¹ s⁻¹ and off-rates as slow as 10⁻⁶ s⁻¹ can be measured.

T1 sequence (P01375 77-233 limits assumed): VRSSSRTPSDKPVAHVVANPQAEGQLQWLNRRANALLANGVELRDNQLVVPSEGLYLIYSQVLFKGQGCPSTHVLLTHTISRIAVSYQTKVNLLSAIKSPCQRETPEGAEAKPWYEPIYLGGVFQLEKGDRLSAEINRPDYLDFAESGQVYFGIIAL

Row | Binder | TNFα Neutralization Assay IC50 nM (L929 cells) [1] | Kd [2] | koff [2] | kon [2]
1 | AB380 (antibody, V domains shown, Full-length humanized antibody made in HEK 293-6E; also called hMAK199VH.2a/hMAK199VL.2b) VH: EIQLVQSGAEVKKPGASVKVSCKASGYTFTNYGMNWVRQAPGQGLEWMGWINTYTGEPTYADDFKGRFTFTLDTSTSTAYMELSSLRSEDTAVYFCARKFLTTVVVTDYAMDYWGQGTTVTVSS VL: DIVMTQSPAFLSVTPGEKVTITCRASQDISNYLNWYQQKPDQAPKLLIYYTSRLQSGVPSRFSGSGSGTDYTFTISSLEAEDAATYYCQQGNTLPPTFGQGTKLEIK | > 20 nM | 1.8 nM | 0.0015 s⁻¹ | 820000 M⁻¹ s⁻¹
2 | AB382 (antibody, V domains shown, Full-length humanized antibody made in HEK 293-6E; also called hMAK199VH.2b/hMAK199VL.1a) VH: EIQLVQSGAEVKKPGASVKVSCKASGYTFTNYGMNWVRQAPGQGLEWMGWINTYTGEPTYADDFKGRVTFTTDTSTSTAYMELSSLRSEDTAVYYCARKFLTTVVVTDYAMDYWGQGTTVTVSS VL: DIQMTQSPSSLSASVGDRVTITCRASQDISNYLNWYQQKPGKTVKLLIYYTSRLQSGVPSRFSGSGSGTDYTLTISSLQPEDFATYFCQQGNTLPPTFGQGTKLEIK | 1.19 nM | 2 nM | 0.0015 s⁻¹ | 740000 M⁻¹ s⁻¹
3 | AB371 (antibody, V domains shown, Full-length humanized antibody made in HEK 293-6E; also called hMAK199VH.2/hMAK199VL.1b) VH: EVQLVQSGAEVKKPGASVKVSCKASGYTFTNYGMNWVRQAPGQGLEWMGWINTYTGEPTYADDFKGRVTMTTDTSTSTAYMELSSLRSEDTAVYYCARKFLTTVVVTDYAMDYWGQGTTVTVSS VL: DIQMTQSPSSLSASVGDRVTITCRASQDISNYLNWYQQKPGKAPKLLIYYTSRLQSGVPSRFSGSGSGTDYTLTISSLQPEDFATYYCQQGNTLPPTFGQGTKLEIK | > 20 nM | 1.2 nM | 0.0017 s⁻¹ | 1.5e+06 M⁻¹ s⁻¹
4 | AB375 (antibody, V domains shown, Full-length humanized antibody made in HEK 293-6E; also called hMAK199VH.2a/hMAK199VL.1) VH: EIQLVQSGAEVKKPGASVKVSCKASGYTFTNYGMNWVRQAPGQGLEWMGWINTYTGEPTYADDFKGRFTFTLDTSTSTAYMELSSLRSEDTAVYFCARKFLTTVVVTDYAMDYWGQGTTVTVSS VL: DIQMTQSPSSLSASVGDRVTITCRASQDISNYLNWYQQKPGKAPKLLIYYTSRLQSGVPSRFSGSGSGTDFTLTISSLQPEDFATYYCQQGNTLPPTFGQGTKLEIK | 11.4 nM | 1.3 nM | 0.0011 s⁻¹ | 900000 M⁻¹ s⁻¹
5 | AB381 (antibody, V domains shown, Full-length humanized antibody made in HEK 293-6E; also called hMAK199VH.2b/hMAK199VL.1) VH: EIQLVQSGAEVKKPGASVKVSCKASGYTFTNYGMNWVRQAPGQGLEWMGWINTYTGEPTYADDFKGRVTFTTDTSTSTAYMELSSLRSEDTAVYYCARKFLTTVVVTDYAMDYWGQGTTVTVSS VL: DIQMTQSPSSLSASVGDRVTITCRASQDISNYLNWYQQKPGKAPKLLIYYTSRLQSGVPSRFSGSGSGTDFTLTISSLQPEDFATYYCQQGNTLPPTFGQGTKLEIK | 5.9 nM | 1.9 nM | 0.0017 s⁻¹ | 860000 M⁻¹ s⁻¹
6 | AB386 (antibody, V domains shown, Full-length humanized antibody made in HEK 293-6E; also called hMAK199VH.2b/hMAK199VL.2b) VH: EIQLVQSGAEVKKPGASVKVSCKASGYTFTNYGMNWVRQAPGQGLEWMGWINTYTGEPTYADDFKGRVTFTTDTSTSTAYMELSSLRSEDTAVYYCARKFLTTVVVTDYAMDYWGQGTTVTVSS VL: DIVMTQSPAFLSVTPGEKVTITCRASQDISNYLNWYQQKPDQAPKLLIYYTSRLQSGVPSRFSGSGSGTDYTFTISSLEAEDAATYYCQQGNTLPPTFGQGTKLEIK | > 20 nM | 2.3 nM | 0.0015 s⁻¹ | 660000 M⁻¹ s⁻¹
7 | AB374 (antibody, V domains shown, Full-length humanized antibody made in HEK 293-6E; also called hMAK199VH.2/hMAK199VL.2b) VH: EVQLVQSGAEVKKPGASVKVSCKASGYTFTNYGMNWVRQAPGQGLEWMGWINTYTGEPTYADDFKGRVTMTTDTSTSTAYMELSSLRSEDTAVYYCARKFLTTVVVTDYAMDYWGQGTTVTVSS VL: DIVMTQSPAFLSVTPGEKVTITCRASQDISNYLNWYQQKPDQAPKLLIYYTSRLQSGVPSRFSGSGSGTDYTFTISSLEAEDAATYYCQQGNTLPPTFGQGTKLEIK | > 20 nM | 1.3 nM | 0.0015 s⁻¹ | 1.2e+06 M⁻¹ s⁻¹
8 | AB373 (antibody, V domains shown, Full-length humanized antibody made in HEK 293-6E; also called hMAK199VH.2/hMAK199VL.2a) VH: EVQLVQSGAEVKKPGASVKVSCKASGYTFTNYGMNWVRQAPGQGLEWMGWINTYTGEPTYADDFKGRVTMTTDTSTSTAYMELSSLRSEDTAVYYCARKFLTTVVVTDYAMDYWGQGTTVTVSS VL: DIVMTQSPAFLSVTPGEKVTITCRASQDISNYLNWYQQKPDQTVKLLIYYTSRLQSGVPSRFSGSGSGTDYTFTISSLEAEDAATYFCQQGNTLPPTFGQGTKLEIK | > 20 nM | 1.2 nM | 0.0012 s⁻¹ | 940000 M⁻¹ s⁻¹
9 | AB379 (antibody, V domains shown, Full-length humanized antibody made in HEK 293-6E; also called hMAK199VH.2a/hMAK199VL.2a) VH: EIQLVQSGAEVKKPGASVKVSCKASGYTFTNYGMNWVRQAPGQGLEWMGWINTYTGEPTYADDFKGRFTFTLDTSTSTAYMELSSLRSEDTAVYFCARKFLTTVVVTDYAMDYWGQGTTVTVSS VL: DIVMTQSPAFLSVTPGEKVTITCRASQDISNYLNWYQQKPDQTVKLLIYYTSRLQSGVPSRFSGSGSGTDYTFTISSLEAEDAATYFCQQGNTLPPTFGQGTKLEIK | > 20 nM | 1.8 nM | 0.0016 s⁻¹ | 890000 M⁻¹ s⁻¹
10 | AB369 (antibody, V domains shown, Full-length humanized antibody made in HEK 293-6E; also called hMAK199VH.2/hMAK199VL.1) VH: EVQLVQSGAEVKKPGASVKVSCKASGYTFTNYGMNWVRQAPGQGLEWMGWINTYTGEPTYADDFKGRVTMTTDTSTSTAYMELSSLRSEDTAVYYCARKFLTTVVVTDYAMDYWGQGTTVTVSS VL: DIQMTQSPSSLSASVGDRVTITCRASQDISNYLNWYQQKPGKAPKLLIYYTSRLQSGVPSRFSGSGSGTDFTLTISSLQPEDFATYYCQQGNTLPPTFGQGTKLEIK | > 20 nM | 1.1 nM | 0.001 s⁻¹ | 940000 M⁻¹ s⁻¹

More lines, in order of falling Kd [2], values ahead:

Row | TNFα Neutralization Assay IC50 nM (L929 cells) [1] | Kd [2] | koff [2] | kon [2] | Binder
11 | 9.76 nM | 2.2 nM | 0.0019 s⁻¹ | 880000 M⁻¹ s⁻¹ | AB385 (antibody, V domains shown, Full-length humanized antibody made in HEK 293-6E; also called hMAK199VH.2b/hMAK199VL.2a) VH: EIQLVQSGAEVKKPGASVKVSCKASGYTFTNYGMNWVRQAPGQGLEWMGWINTYTGEPTYADDFKGRVTFTTDTSTSTAYMELSSLRSEDTAVYYCARKFLTTVVVTDYAMDYWGQGTTVTVSS VL: DIVMTQSPAFLSVTPGEKVTITCRASQDISNYLNWYQQKPDQTVKLLIYYTSRLQSGVPSRFSGSGSGTDYTFTISSLEAEDAATYFCQQGNTLPPTFGQGTKLEIK
12 | > 20 nM | 2.1 nM | 0.0018 s⁻¹ | 830000 M⁻¹ s⁻¹ | AB383 (antibody, V domains shown, Full-length humanized antibody made in HEK 293-6E; also called hMAK199VH.2b/hMAK199VL.1b) VH: EIQLVQSGAEVKKPGASVKVSCKASGYTFTNYGMNWVRQAPGQGLEWMGWINTYTGEPTYADDFKGRVTFTTDTSTSTAYMELSSLRSEDTAVYYCARKFLTTVVVTDYAMDYWGQGTTVTVSS VL: DIQMTQSPSSLSASVGDRVTITCRASQDISNYLNWYQQKPGKAPKLLIYYTSRLQSGVPSRFSGSGSGTDYTLTISSLQPEDFATYYCQQGNTLPPTFGQGTKLEIK
13 | 3.65 nM | 1.3 nM | 0.0014 s⁻¹ | 1.1e+06 M⁻¹ s⁻¹ | AB376 (antibody, V domains shown, Full-length humanized antibody made in HEK 293-6E; also called hMAK199VH.2a/hMAK199VL.1a) VH: EIQLVQSGAEVKKPGASVKVSCKASGYTFTNYGMNWVRQAPGQGLEWMGWINTYTGEPTYADDFKGRFTFTLDTSTSTAYMELSSLRSEDTAVYFCARKFLTTVVVTDYAMDYWGQGTTVTVSS VL: DIQMTQSPSSLSASVGDRVTITCRASQDISNYLNWYQQKPGKTVKLLIYYTSRLQSGVPSRFSGSGSGTDYTLTISSLQPEDFATYFCQQGNTLPPTFGQGTKLEIK
14 | 3.78 nM | 1.1 nM | 0.0012 s⁻¹ | 1e+06 M⁻¹ s⁻¹ | AB370 (antibody, V domains shown, Full-length humanized antibody made in HEK 293-6E; also called hMAK199VH.2/hMAK199VL.1a) VH: EVQLVQSGAEVKKPGASVKVSCKASGYTFTNYGMNWVRQAPGQGLEWMGWINTYTGEPTYADDFKGRVTMTTDTSTSTAYMELSSLRSEDTAVYYCARKFLTTVVVTDYAMDYWGQGTTVTVSS VL: DIQMTQSPSSLSASVGDRVTITCRASQDISNYLNWYQQKPGKTVKLLIYYTSRLQSGVPSRFSGSGSGTDYTLTISSLQPEDFATYFCQQGNTLPPTFGQGTKLEIK
